# Assay results published in article PMC11371640, “Structural deficits in key domains of Shank2 lead to alterations in postsynaptic nanoclusters and to a neurodevelopmental disorder in humans” (Molecular Psychiatry, 2022).
# Where a chain is given by its changes, count along the chain named. Names may count otherwise.
# T1: GST fusion protein of the GKAP C-terminus (50 C-terminal residues), P97836-4
# T1 chain: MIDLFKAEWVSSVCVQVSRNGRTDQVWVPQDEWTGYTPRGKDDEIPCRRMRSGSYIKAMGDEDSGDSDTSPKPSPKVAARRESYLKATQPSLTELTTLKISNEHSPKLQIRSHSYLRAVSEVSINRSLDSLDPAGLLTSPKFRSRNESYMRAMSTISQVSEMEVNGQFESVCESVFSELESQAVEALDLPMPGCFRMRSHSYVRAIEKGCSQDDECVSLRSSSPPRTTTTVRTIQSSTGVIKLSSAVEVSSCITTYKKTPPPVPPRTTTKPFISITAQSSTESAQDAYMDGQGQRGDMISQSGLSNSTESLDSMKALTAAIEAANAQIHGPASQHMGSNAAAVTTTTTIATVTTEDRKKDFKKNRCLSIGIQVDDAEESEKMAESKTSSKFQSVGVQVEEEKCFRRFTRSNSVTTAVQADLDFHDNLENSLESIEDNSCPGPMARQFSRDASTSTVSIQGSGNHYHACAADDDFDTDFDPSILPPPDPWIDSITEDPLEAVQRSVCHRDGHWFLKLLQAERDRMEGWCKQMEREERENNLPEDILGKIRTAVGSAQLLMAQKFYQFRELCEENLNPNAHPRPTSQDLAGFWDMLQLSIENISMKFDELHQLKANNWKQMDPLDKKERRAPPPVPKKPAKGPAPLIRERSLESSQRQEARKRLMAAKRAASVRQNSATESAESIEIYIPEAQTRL
# B1: mCherry-tagged human Shank2a (WT), Q9UPX8-3 S610Y (protein)
# chain: MPRSPTSSEDEMAQSFSDYSVGSESDSSKEETIYDTIRATAEKPGGARTEESQGNTLVIRVVIHDLQQTKCIRFNPDATVWVAKQRILCTLTQSLKDVLNYGLFQPASNGRDGKFLDEERLLREYPQPVGEGVPSLEFRYKKRVYKQASLDEKQLAKLHTKTNLKKCMDHIQHRLVEKITKMLDRGLDPNFHDPETGETPLTLAAQLDDSVEVIKALKNGGAHLDFRAKDGMTALHKAARARNQVALKTLLELGASPDYKDSYGLTPLYHTAIVGGDPYCCELLLHEHATVCCKDENGWHEIHQACRYGHVQHLEHLLFYGADMSAQNASGNTALHICALYNQDSCARVLLFRGGNKELKNYNSQTPFQVAIIAGNFELAEYIKNHKETDIVPFREAPAYSNRRRRPPNTLAAPRVLLRSNSDNNLNASAPDWAVCSTATSHRSLSPQLLQQMPSKPEGAAKTIGSYVPGPRSRSPSLNRLGGAGEDGKRPQPLWHVGSPFALGANKDSLSAFEYPGPKRKLYSAVPGRLFVAVKPYQPQVDGEIPLHRGDRVKVLSIGEGGFWEGSARGHIGWFPAECVEEVQCKPRDSQAETRADRSKKLFRHYTVGYYDSFDTSSDCIIEEKTVVLQKKDNEGFGFVLRGAKADTPIEEFTPTPAFPALQYLESVDEGGVAWQAGLRTGDFLIEVNNENVVKVGHRQVVNMIRQGGNHLVLKVVTVTRNLDPDDTARKKAPPPPKRAPTTALTLRSKSMTSELEELVDKASVRKKKDKPEEIVPASKPSRAAENMAVEPRVATIKQRPSSRCFPAGSDMNSVYERQGIAVMTPTVPGSPKAPFLGIPRGTMRRQKSIDSRIFLSGITEEERQFLAPPMLKFTRSLSMPDTSEDIPPPPQSVPPSPPPPSPTTYNCPKSPTPRVYGTIKPAFNQNSAAKVSPATRSDTVATMMREKGMYFRRELDRYSLDSEDLYSRNAGPQANFRNKRGQMPENPYSEVGKIASKAVYVPAKPARRKGMLVKQSNVEDSPEKTCSIPIPTIIVKEPSTSSSGKSSQGSSMEIDPQAPEPPSQLRPDESLTVSSPFAAAIAGAVRDREKRLEARRNSPAFLSTDLGDEDVGLGPPAPRTRPSMFPEEGDFADEDSAEQLSSPMPSATPREPENHFVGGAEASAPGEAGRPLNSTSKAQGPESSPAVPSASSGTAGPGNYVHPLTGRLLDPSSPLALALSARDRAMKESQQGPKGEAPKADLNKPLYIDTKMRPSLDAGFPTVTRQNTRGPLRRQETENKYETDLGRDRKGDDKKNMLIDIMDTSQQKSAGLLMVHTVDATKLDNALQEEDEKAEVEMKPDSSPSEVPEGVSETEGALQISAAPEPTTVPGRTIVAVGSMEEAVILPFRIPPPPLASVDLDEDFIFTEPLPPPLEFANSFDIPDDRAASVPALSDLVKQKKSDTPQSPSLNSSQPTNSADSKKPASLSNCLPASFLPPPESFDAVADSGIEEVDSRSSSDHHLETTSTISTVSSISTLSSEGGENVDTCTVYADGQAFMVDKPPVPPKPKMKPIIHKSNALYQDALVEEDVDSFVIPPPAPPPPPGSAQPGMAKVLQPRTSKLWGDVTEIKSPILSGPKANVISELNSILQQMNREKLAKPGEGLDSPMGAKSASLAPRSPEIMSTISGTRSTTVTFTVRPGTSQPITLQSRPPDYESRTSGTRRAPSPVVSPTEMNKETLPAPLSAATASPSPALSDVFSLPSQPPSGDLFGLNPAGRSRSPSPSILQQPISNKPFTTKPVHLWTKPDVADWLESLNLGEHKEAFMDNEIDGSHLPNLQKEDLIDLGVTRVGHRMNIERALKQLLDR
# B2: mCherry-tagged human Shank2a (WT), Q9UPX8-3 G643R (protein)
# chain: B1 chain with Y610S, G643R
# B3: mCherry-tagged human Shank2a (WT), Q9UPX8-3 N690S (protein)
# chain: B1 chain with Y610S, N690S
# Molecular target: T1, GST fusion protein of the GKAP …
# Test: GST pulldown, Western blot quantification
# Conditions: chain shown with the change; 293T cell lysates; four independent experiments; parent: est. 3.8; read off a plot
row,response (Precipitate / Input),Binder
1,2.4,B1
2,0.3,B2
3,2.8,B3
